Among the data in patent US20250051474A1, “ANTI-CD97 ANTIBODIES AND ANTIBODY-DRUG CONJUGATES” (New York University, priority 2023, published 2025) are Kd values, retold here.

The target in assay [1] is T1, CD97 (ADGRE5) isoform 1 ectodomain, purified and biotinylated (human, UniProt P48960 21-552, limits assumed, biotinylated in vitro using the BirA enzyme).
T1 construct: the whole entry for isoform 1 is named here; also called CD97 isoform 1; Biotinylated CD97 isoform 1
T1 sequence: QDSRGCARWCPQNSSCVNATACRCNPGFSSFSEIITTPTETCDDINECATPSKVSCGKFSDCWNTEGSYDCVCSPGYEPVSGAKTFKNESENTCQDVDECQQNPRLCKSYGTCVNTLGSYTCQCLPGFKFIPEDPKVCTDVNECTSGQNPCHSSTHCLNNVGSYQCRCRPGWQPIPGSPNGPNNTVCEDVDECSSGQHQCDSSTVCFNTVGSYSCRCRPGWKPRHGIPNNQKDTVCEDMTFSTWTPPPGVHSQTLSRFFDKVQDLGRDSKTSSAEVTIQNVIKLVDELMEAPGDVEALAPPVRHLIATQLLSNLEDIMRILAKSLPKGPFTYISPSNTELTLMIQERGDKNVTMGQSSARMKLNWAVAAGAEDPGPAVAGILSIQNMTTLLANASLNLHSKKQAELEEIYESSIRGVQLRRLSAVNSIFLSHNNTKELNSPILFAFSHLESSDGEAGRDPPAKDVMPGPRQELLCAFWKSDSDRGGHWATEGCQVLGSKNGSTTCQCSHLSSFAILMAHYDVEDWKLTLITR
As to the kind of experiment: bead-based binding assay: biotinylated CD97 isoform 1 on streptavidin beads, Fab titrated, flow cytometry MFI, 1:1 fit; EXPERIMENT 1. (In general: In flow cytometry, cells or beads pass a laser one at a time.)
Description: (§1) KD values were determined from the curve fitting of a 1:1 binding model.

The target in a further assay is T2, K519A (human, UniProt P48960).
T2 construct: transiently expressed on the surface of ExpiCHO cells, gated by anti-V5 tag staining; also called CD97 GAIN mutant K519A expressed on ExpiCHO cells
T2 sequence (receptor, looked up): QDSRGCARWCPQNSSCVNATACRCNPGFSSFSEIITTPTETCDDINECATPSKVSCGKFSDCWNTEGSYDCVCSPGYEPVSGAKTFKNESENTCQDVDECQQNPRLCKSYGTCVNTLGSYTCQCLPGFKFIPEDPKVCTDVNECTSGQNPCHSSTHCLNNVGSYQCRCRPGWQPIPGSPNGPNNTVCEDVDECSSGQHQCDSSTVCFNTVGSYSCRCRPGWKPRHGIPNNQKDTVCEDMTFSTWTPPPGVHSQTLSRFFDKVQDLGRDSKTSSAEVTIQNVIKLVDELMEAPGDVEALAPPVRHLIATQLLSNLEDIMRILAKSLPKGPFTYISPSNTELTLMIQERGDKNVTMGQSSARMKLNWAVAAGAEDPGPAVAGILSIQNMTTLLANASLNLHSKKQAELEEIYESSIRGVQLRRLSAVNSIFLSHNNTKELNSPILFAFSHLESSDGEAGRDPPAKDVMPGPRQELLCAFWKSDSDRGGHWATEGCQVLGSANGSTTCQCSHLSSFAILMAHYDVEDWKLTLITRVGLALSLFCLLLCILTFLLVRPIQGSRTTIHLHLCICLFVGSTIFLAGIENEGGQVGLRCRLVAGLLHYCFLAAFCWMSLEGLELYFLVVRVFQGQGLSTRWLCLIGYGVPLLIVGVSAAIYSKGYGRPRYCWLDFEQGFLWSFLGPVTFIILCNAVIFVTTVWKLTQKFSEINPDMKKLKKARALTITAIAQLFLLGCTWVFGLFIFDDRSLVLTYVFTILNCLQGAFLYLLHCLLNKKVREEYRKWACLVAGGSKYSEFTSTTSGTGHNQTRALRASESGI
In words: cell-based binding assay: CD97 GAIN mutant transiently expressed on ExpiCHO cells, A8 Fab titrated, flow cytometry MFI, 1:1 fit; upper panel.

In assay [2] the target is T3, CD97 GAIN mutant Q376A expressed on ExpiCHO cells (human, UniProt P48960 21-835).
T3 construct: numbering of isoform 1; whole entry named
T3 sequence: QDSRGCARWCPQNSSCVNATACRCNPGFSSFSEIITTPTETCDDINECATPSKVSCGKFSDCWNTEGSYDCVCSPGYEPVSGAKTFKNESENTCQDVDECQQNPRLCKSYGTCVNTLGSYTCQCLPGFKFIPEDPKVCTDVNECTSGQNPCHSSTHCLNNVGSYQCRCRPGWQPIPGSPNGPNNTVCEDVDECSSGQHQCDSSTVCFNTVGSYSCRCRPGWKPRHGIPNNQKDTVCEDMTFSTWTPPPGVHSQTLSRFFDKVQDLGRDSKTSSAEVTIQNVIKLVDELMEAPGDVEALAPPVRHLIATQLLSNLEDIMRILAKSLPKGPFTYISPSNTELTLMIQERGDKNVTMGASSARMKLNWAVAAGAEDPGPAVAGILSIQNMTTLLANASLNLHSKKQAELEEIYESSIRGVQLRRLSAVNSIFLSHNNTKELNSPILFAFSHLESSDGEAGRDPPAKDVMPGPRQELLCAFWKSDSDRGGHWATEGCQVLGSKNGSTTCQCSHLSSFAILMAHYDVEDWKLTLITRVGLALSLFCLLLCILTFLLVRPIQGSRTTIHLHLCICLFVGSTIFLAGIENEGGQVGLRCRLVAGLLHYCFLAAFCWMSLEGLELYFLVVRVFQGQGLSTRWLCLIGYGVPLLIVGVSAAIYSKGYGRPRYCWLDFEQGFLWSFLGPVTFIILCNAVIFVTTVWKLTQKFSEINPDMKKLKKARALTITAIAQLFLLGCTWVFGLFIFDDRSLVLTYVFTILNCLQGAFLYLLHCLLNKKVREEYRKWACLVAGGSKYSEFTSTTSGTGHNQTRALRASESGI
The assay is described as above.
Description: as §1

Description for K519A: as §1

B1: Antibody clone A8, Fab format (Fab, V domains shown)
VH: EVQLVESGGGLVQPGGSLRLSCAASGFTISSYSIHWVRQAPGKGLEWVASISPYYGSTSYADSVKGRFTISADTSKNTAYLQMNSLRAEDTAVYYCARSWYYYEQNPYWYQKEEQALDYWGQGTLVTVSS
VL: DIQMTQSPSSLSASVGDRVTITCRASQSVSSAVAWYQQKPGKAPKLLIYSASSLYSGVPSRFSGSRSGTDFTLTISSLQPEDFATYYCQQSVYSPVTFGQGTKVEIKR
notes: Fab; also called wild type A8
Consider B1, for which the results for the Kd (in assay [1]; with K519A; in assay [2]) were 16 nM, 110 nM and 310 nM, respectively.

In general, Kd refers to the concentration at which binding is half-saturated. Lower therefore signals higher affinity.
